Reference: article PMC5336696, “Structural basis for potency differences between GDF8 and GDF11” (BMC Biology, 2017)

T1: mature growth/differentiation factor 8 (GDF8) (human) (UniProt O14793)
T1 sequence: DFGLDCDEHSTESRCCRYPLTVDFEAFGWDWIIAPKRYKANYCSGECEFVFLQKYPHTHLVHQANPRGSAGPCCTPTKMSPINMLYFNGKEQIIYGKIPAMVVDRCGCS

T2: mature growth/differentiation factor 11 (GDF11) (human) (UniProt O95390)
T2 sequence: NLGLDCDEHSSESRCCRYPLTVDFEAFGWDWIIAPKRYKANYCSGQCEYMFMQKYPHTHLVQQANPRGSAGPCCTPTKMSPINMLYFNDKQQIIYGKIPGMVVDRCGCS

T3: mature growth/differentiation factor 8 (GDF8) (human, UniProt O14793 267-375)
T3 sequence (looked up): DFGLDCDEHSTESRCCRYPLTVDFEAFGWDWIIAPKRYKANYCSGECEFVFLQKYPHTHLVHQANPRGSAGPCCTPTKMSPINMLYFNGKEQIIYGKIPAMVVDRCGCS

T4: mature growth/differentiation factor 11 (GDF11) (human, UniProt O95390 299-407)
T4 sequence (looked up): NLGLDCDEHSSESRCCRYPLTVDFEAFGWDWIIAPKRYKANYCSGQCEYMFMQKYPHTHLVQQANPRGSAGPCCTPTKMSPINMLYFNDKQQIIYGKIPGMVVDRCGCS


What was measured:
[1] = target: T1, mature growth/differentiation factor 8 (GDF8) (human)
[2] = target: T2, mature growth/differentiation factor 11 (GDF11) (human)
[3] = target: T3, mature growth/differentiation factor 8 …; assay: cell-based or functional assay
[4] = target: T4, mature growth/differentiation factor 11 …; assay: cell-based or functional assay
[5] = target: T3, mature growth/differentiation factor 8 …; assay: cell-based or functional assay; remark: listed apart in the source
[6] = target: T4, mature growth/differentiation factor 11 …; assay: cell-based or functional assay; remark: listed apart in the source
[7] = target: T4, mature growth/differentiation factor 11 …; assay: cell-based or functional assay; remark: listed apart in the source

Binder | IC50 of inhibition of 0.62 nM GDF8, (CAGA)12 luciferase reporter in HEK293 cells [1] | IC50 of inhibition of 0.62 nM GDF11, (CAGA)12 luciferase reporter in HEK293 cells [2] | IC50 of inhibition of 0.62 nM GDF8 by the soluble receptor, (CAGA)12 luciferase reporter in HEK293 cells [5] | IC50 of inhibition of 0.62 nM GDF11 by the soluble receptor, (CAGA)12 luciferase reporter in HEK293 cells [6] | also measured
follistatin-like 3 (FSTL3) (natural protein) MGSGNPAPGGVCWLQQGQEATCSLVLQTDVTRAECCASGNIDTAWSNLTHPGNKINLLGFLGLVHCLPCKDSCDGVECGPGKACRMLGGRPRCECAPDCSGLPARLQVCGSDGATYRDECELRAARCRGHPDLSVMYRGRCRKSCEHVVCPRPQSCVVDQTGSAHCVVCRAAPCPVPSSPGQELCGNNNVTYISSCHMRQATCFLGRSIGVRHAGSCAGTPEEPPGGESAEEEENFV | 1.2 nM | 4 nM | – | – | –
growth/differentiation factor-associated serum protein 1 (GASP1) (natural protein) LPPIRYSHAGICPNDMNPNLWVDAQSTCRRECETDQECETYEKCCPNVCGTKSCVAARYMDVKGKKGPVGMPKEATCDHFMCLQQGSECDIWDGQPVCKCKDRCEKEPSFTCASDGLTYYNRCYMDAEACSKGITLAVVTCRYHFTWPNTSPPPPETTMHPTTASPETPELDMAAPALLNNPVHQSVTMGETVSFLCDVVGRPRPEITWEKQLEDRENVVMRPNHVRGNVVVTNIAQLVIYNAQLQDAGIYTCTARNVAGVLRADFPLSVVRGHQAAATSESSPNGTAFPAAECLKPPDSEDCGEEQTRWHFDAQANNCLTFTFGHCHRNLNHFETYEACMLACMSGPLAACSLPALQGPCKAYAPRWAYNSQTGQCQSFVYGGCEGNGNNFESREACEESCPFPRGNQRCRACKPRQKLVTSFCRSDFVILGRVSELTEEPDSGRALVTVDEVLKDEKMGLKFLGQEPLEVTLLHVDWACPCPNVTVSEMPLIIMGEVDGGMAMLRPDSFVGASSARRVRKLREVMHKKTCDVLKEFLGLH | 0.2 nM | 0.3 nM | – | – | –
follistatin 288 (FS288) (natural protein, UniProt P19883-2 30-317, looked up) GNCWLRQAKNGRCQVLYKTELSKEECCSTGRLSTSWTEEDVNDNTLFKWMIFNGGAPNCIPCKETCENVDCGPGKKCRMNKKNKPRCVCAPDCSNITWKGPVCGLDGKTYRNECALLKARCKEQPELEVQYQGRCKKTCRDVFCPGSSTCVVDQTNNAYCVTCNRICPEPASSEQYLCGNDGVTYSSACHLRKATCLLGRSIGLAYEGKCIKAKSCEDIQCTGGKKCLWDFKVGRGRCSLCDELCPDSKSDEPVCASDNATYASECAMKEAACSSGVLLEVKHSGSCN | – | – | – | – | IC50 of inhibition of 0.62 nM GDF8, (CAGA)12 luciferase reporter in HEK293 cells [3]: 0.2 nM; IC50 of inhibition of 0.62 nM GDF11, (CAGA)12 luciferase reporter in HEK293 cells [4]: 0.3 nM
GASP2 (natural protein) AGLLPGLGSHPGVCPNQLSPNLWVDAQSTCERECSRDQDCAAAEKCCINVCGLHSCVAARFPGSPAAPTTAASCEGFVCPQQGSDCDIWDGQPVCRCRDRCEKEPSFTCASDGLTYYNRCYMDAEACLRGLHLHIVPCKHVLSWPPSSPGPPETTARPTPGAAPVPPALYSSPSPQAVQVGGTASLHCDVSGRPPPAVTWEKQSHQRENLIMRPDQMYGNVVVTSIGQLVLYNARPEDAGLYTCTARNAAGLLRADFPLSVVQREPARDAAPSIPAPAECLPDVQACTGPTSPHLVLWHYDPQRGGCMTFPARGCDGAARGFETYEACQQACARGPGDACVLPAVQGPCRGWEPRWAYSPLLQQCHPFVYGGCEGNGNNFHSRESCEDACPVPRTPPCRACRLRSKLALSLCRSDFAIVGRLTEVLEEPEAAGGIARVALEDVLKDDKMGLKFLGTKYLEVTLSGMDWACPCPNMTAGDGPLVIMGEVRDGVAVLDAGSYVRAASEKRVKKILELLEKQACELLNRFQD | 4.1 nM | 18.3 nM | – | – | –
ActRIIB extracellular domain (ActRIIB-ECD) (receptor, UniProt P38445 19-137, looked up) SGRGEAETRECIYYNANWELERTNQSGLERCEGEQDKRLHCYASWRNSSGTIELVKKGCWLDDFNCYDRQECVATEENPQVYFCCCEGNFCNERFTHLPEPGGPEVTYEPPPTAPTLLT | – | – | 12.4 nM | 13 nM | IC50 of inhibition of 0.62 nM GDF11 by the soluble receptor, (CAGA)12 luciferase reporter in HEK293 cells (value of the text) [7]: 14 nM
Fc-ActRIIB-ECD (Fc fusion, UniProt Q13705 19-137, looked up) SGRGEAETRECIYYNANWELERTNQSGLERCEGEQDKRLHCYASWRNSSGTIELVKKGCWLDDFNCYDRQECVATEENPQVYFCCCEGNFCNERFTHLPEAGGPEVTYEPPPTAPTLLT | – | – | 3 nM | 10.3 nM | –
